Test results published in US10662230B2, “Cyclic RGD cell-binding motif and uses thereof” (Spiber Technologies AB, priority 2015, dated 2020).
Entries after “also recorded” stand apart in the source; their conditions may differ.

Columns and labels:
[1] = test system: Normal human epidermal keratinocytes (KC); test: Early attachment assay, keratinocytes on silk films; assay type: cell-based
Method: Normal human epidermal keratinocytes from adult skin (NHEK-ad) were purchased from Lonza. Subculture, proliferation and migration experiments were done in KGM-Gold (Lonza), containing bovine pituitary extract, whereas adhesion experiments were performed in KGM-CD (chemically defined), supplemented with CaCl2) to give 1.2 mM Ca^2+.
Cells were harvested at passage 3-8, seeded at 20 000/cm^2 and allowed to adhere to the films or controls for 1 h in a cell incubator before gentle washing twice with pre-warmed phosphate buffered saline (PBS) followed by 10 min fixation with 96% ethanol. After three washings in water, cells were stained for 30 min with 0.1% Crystal Violet in H2O. Plates were dried after extensive washing in water.
Attachment and morphology of cells bound to the films obtained in Example 3 were documented by taking micrographs at 2× and 10× magnification in an inverted bright field microscope. The color was then dissolved in 40 μL 20% acetic acid for 10 min, and 35 μL of the solution was transferred to a 384-well plate for optical density measurement at 595 nm (TECAN Infinite M200). Wells with cells fixed without pre-washing was used as positive control. Wells with no cells were used as blank. Experiments were run in hexaplicates and repeated three times.
Determination of cell coverage area within a defined region (9.12 mm^2) of the micrographs (at 2× magnification) was done using the software NIS elements BR (Nikon).
After seeing this positive effect of the introduced FNCC motif, we wanted to find out how well the FNCC-silk would compare to native, full length fibronectin, where the RGD is presented on a turn loop constrained by the structure. We therefore used fibronectin from bovine plasma (BFN) to coat cell culture wells, as well as naked cell culture treated plastic (TCT), on which KC can be cultured, as a control. Serum-free experimental conditions was chosen to avoid possible interactions between the matrices and serum proteins that potentially could give rise to increased cell adherence.
For this purpose, we used two FN-silk variants where a linear RGD presentation is expected (FIG. 1a). The first variant (FNVS; SEQ ID NO: 15), contains the original sequence of the RGD-containing motif in fibronectin, to show the effect of the native flanking amino acids without influence of the loop conformation. In the second variant (FNSS; SEQ ID NO: 14), the two flanking cysteines in FNCC were substituted for serine, which resembles cysteine but lacks the —SH-group and is therefore unable to form disulfide bridges. The different FN-silk variants, as well as RGD-silk (SEQ ID NO: 16) and WT-silk (SEQ ID NO: 2), were evaluated with primary KC. Cells were analyzed both for early attachment (FIG. 5), spreading and formation of stress fibers (FIG. 6), and focal adhesions (FIG. 7). Early attachment assay and cellular stainings were performed as detailed in Example 6.

[2] = test system: dermal keratinocytes (NHEK); test: Repopulation assay (wound field); assay type: cell-based, human; conditions: 0.9 mm wound field, 6 days of culture
Method: To evaluate the ability of the different silk variants to support repopulation of an open would field, dermal keratinocytes (NHEK) were stained with Oregon green cell trace (Life Technologies) before seeded onto films of FNCC-silk (SEQ ID NO: 13) and WT-silk (SEQ ID NO: 2) at 20 000 cells/cm^2 in 24 well plates. Wound field inserts (CytoSelect™ Wound healing assay, Cell Biolabs) were added into the wells before cell seeding to generate a 0.9 mm wide open would field in the cell monolayer, while keeping the film intact. After 16 h the inserts were removed, and the repopulation process were followed each day and documented by inverted fluorescence microscopy at day 0 (insert removal), day 2 and 4. At day 6 cells were fixed and stained according to the assay protocol, and imaged by inverted bright field microscopy.
Thus, green-traced cells were seeded at high density into wells with inserts preventing cells to reach a defined part of the silk-film, the “wound field”. After monolayer formation outside the wound field, the insert was removed, and repopulation of the gap was documented during 6 days of culture, thus allowing both migration and proliferation of cells.

integrin α5β1 = molecular target: T1, integrin α5β1 (Homo sapiens, UniProt P05556+P08648); test: Engagement of integrin α5β1 in KC (SNAKA-51/HUTS-4 staining); assay type: cell-based; conditions: KC adhering for 3 h
T1 construct: endogenous in cells; host or cells: human primary keratinocytes (KC)
T1 sequence (P08648 42-894 limits assumed): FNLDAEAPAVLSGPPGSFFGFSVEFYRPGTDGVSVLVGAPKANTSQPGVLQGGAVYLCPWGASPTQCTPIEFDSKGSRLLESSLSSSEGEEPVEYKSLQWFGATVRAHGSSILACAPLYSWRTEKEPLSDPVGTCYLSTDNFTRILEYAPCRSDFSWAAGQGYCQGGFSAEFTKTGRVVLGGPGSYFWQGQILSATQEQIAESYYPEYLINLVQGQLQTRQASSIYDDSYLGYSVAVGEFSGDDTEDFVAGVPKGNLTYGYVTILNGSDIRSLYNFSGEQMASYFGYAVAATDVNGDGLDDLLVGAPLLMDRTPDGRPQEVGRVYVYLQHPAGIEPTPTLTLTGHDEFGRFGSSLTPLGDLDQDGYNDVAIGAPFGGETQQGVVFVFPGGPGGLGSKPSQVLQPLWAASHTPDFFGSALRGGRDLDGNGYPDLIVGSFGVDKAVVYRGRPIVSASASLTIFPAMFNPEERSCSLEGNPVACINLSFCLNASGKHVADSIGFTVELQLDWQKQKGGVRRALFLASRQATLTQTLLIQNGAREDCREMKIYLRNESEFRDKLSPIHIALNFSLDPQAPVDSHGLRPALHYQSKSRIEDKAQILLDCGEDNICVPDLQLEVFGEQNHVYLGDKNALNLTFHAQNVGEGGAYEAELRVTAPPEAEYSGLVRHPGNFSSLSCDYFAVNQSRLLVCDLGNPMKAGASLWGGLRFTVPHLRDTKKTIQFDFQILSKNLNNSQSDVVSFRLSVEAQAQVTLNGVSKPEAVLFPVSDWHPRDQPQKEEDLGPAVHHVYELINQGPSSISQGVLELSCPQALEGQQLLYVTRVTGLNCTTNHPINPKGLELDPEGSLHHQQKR
T1 sequence (P08648 895-1049 partner limits assumed): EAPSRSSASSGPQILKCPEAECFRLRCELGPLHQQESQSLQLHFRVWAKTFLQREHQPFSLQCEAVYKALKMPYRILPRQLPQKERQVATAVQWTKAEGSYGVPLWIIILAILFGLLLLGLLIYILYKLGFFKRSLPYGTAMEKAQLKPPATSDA
T1 sequence (P05556 21-798): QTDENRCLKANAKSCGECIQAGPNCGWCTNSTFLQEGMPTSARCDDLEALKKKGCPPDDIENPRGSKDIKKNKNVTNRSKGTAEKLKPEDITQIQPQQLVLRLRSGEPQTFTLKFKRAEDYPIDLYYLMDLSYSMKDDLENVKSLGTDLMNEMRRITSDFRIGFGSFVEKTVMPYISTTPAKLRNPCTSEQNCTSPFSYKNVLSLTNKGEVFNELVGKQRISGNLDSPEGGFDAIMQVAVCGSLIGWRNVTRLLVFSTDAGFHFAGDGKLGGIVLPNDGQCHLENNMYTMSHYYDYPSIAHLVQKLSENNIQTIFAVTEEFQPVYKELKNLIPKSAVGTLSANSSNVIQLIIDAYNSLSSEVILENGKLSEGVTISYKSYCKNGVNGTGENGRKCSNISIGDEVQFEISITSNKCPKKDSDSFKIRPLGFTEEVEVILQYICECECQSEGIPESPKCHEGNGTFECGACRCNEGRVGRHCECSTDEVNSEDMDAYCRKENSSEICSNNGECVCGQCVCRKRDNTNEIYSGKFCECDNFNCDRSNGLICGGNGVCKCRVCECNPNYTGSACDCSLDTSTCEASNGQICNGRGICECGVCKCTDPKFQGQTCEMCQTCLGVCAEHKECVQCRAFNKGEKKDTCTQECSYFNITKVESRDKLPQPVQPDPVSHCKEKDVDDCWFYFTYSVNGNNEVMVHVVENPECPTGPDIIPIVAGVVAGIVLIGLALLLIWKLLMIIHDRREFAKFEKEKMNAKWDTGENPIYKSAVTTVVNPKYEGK
Method: Primary antibody were used at the following concentrations in 1% BSA: mouse anti human vinculin (Sigma V9131) at 9.5 μg/ml, mouse-anti human beta1-integrin (activated conformation, clone HUTS-4) at 3.3 μg/mL, or mouse-anti human alpha5-integrin (ligand bound conformation, clone SNAKA-51) at 2.5 μg/mL, both Millipore.
Since the integrin α5β1 is known to selectively bind to fibronectin, we decided to investigate if this integrin is involved in the binding of KC to FNCC-silk (SEQ ID NO: 13). To do this, we selected two monoclonal antibodies, developed to specifically recognize the ligand bound conformation of α5 integrin (SNAKA-51) and the activated conformation of β1 integrin (HUTS-4), respectively, and used them in combination for staining of KC adhering to FNCC-silk for 3 h, in combination with staining with phalloidin for F-actin, as set out in Examples 6-7.

B1: FNCC-silk: recombinant spider silk protein 4RepCT with N-terminal cysteine-looped RGD motif CTGRGDSPAC (SEQ ID NO: 10) (protein)
chain: GPNSCTGRGDSPACGSASGQGGYGGLGQGGYGQGAGSSAAAAAAAAAAAAGGQGGQGQGGYGQGSGGSAAAAAAAAAAAAAAAGRGQGGYGQGSGGNAAAAAAAAAAAAAAAGQGGQGGYGRQSQGAGSAAAAAAAAAAAAAAGSGQGGYGGQGQGGYGQSSASASAAASAASTVANSVSRLSSPSAVSRVSSAVSSLVSNGQVNMAALPNIISNISSSVSASAPGASGCEVIVQALLEVITALVQIVSSSSVGYINPSAVNQITNVVANAMAQVMG
modifications: cyclic disulfide loop; Fusion protein; DISULFID (5)..(14)
- adhesion in each individual experiment ([1]; KC on tested silk films): most efficient adhesion of the tested films
- attachment seen in micrographs ([1]; KC, 1 h adhesion to film, crystal violet staining): clear improvement of attachment is seen on the FNCC films compared to both RGD and WT
- cell coverage area within a defined region (9.12 mm^2) ([1]; KC, 1 h adhesion to silk films, seeding 20 000/cm2): increased attachment (i.e. area covered by cells) compared to both FNSS and FNVS; also recorded: significantly higher adhesion of KC compared to RGD-silk
- cell coverage area within a defined region (9.12 mm^2) ([1]; KC, 1 h adhesion to silk films, seeding 20 000/cm2, listed as FNCC): significantly larger than on both WT- and RGD-silk
- cell coverage area within a defined region (9.12 mm^2) ([1]; KC, 1 h adhesion, comparison with bovine fibronectin coating and TCT plastic, serum-free): bound equally well to the BFN and the FNCC-silk after 1 h adherence, and importantly both significantly better than TCT
- OD of dissolved crystal violet ([1]; KC, 1 h adhesion, pooled data from 8 experiments (data not shown)): very similar results
- effect of reducing agents added to the silk solution before films were casted ([1]; KC, DTT, β-mercaptoethanol or TCEP added): no differences compared to non-reduced FNCC film were detected
- repopulation of the wound field [2]: efficiently repopulated the wound field on FNCC-silk, which was almost completely covered with cells at the end of the experiment
- staining for ligand bound α5 integrin and activated β1 integrin (integrin α5β1): week but distinct staining pattern resembling the pattern seen when staining for vinculin
